Starred links: 1 amine or outer side, 2 acyl side, 3 side chain; linkers in the order of their positions; H or OH if unused. Non-standard residues stand in square brackets, D forms with d. Groups on a side chain read outwards from the residue. *: point of attachment. C20 diacid = O=C(O)CCCCCCCCCCCCCCCCCCC(=O)*; γGlu = O=C(O)[C@H](CCC(=O)[*:2])N[*:1]; Palmitoyl = CCCCCCCCCCCCCCCC(=O)*; Aib = CC(C)(N)C(=O)O
T1: human GIP receptor (human, UniProt P48546 22-466)
T1 sequence (looked up): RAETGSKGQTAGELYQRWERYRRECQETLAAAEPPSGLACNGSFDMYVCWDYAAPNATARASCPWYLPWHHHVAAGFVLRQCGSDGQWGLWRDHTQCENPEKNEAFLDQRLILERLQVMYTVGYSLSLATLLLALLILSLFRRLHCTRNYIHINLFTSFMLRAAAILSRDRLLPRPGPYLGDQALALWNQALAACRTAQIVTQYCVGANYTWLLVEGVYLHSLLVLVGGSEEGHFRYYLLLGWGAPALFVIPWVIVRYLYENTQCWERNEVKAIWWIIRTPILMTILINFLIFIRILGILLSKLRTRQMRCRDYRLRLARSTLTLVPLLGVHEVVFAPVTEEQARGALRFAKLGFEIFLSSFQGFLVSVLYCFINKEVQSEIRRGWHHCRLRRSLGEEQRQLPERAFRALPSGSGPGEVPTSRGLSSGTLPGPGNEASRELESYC


Columns and labels:
Assay in all cases: cell-based or functional assay
human GIP receptor [1] = biological target: T1, human GIP receptor
human GIP receptor [2] = biological target: T1, human GIP receptor; remark: listed apart in the source
human GLP-1 receptor = human GLP-1 receptor (human, UniProt P43220 24-463)

Binder	EC50, hGIP-R level of cAMP (HEK293 cells expressing human GIP R) (human GIP receptor [1]) [nM]	EC50 hGIP R (cAMP, HEK293 cells expressing the GIP R) (human GIP receptor [2]) [nM]	EC50 hGLP1 R (cAMP, HEK293 cells expressing the GLP-1R) (human GLP-1 receptor) [nM]
H-Y[Aib]EGTFISDYSIELDKIHQQDFVNWLLAQKGK([γGlu-Palmitoyl])-NH2 (SMILES CCCCCCCCCCCCCCCC(=O)N[C@@H](CCC(=O)NCCCC[C@H](NC(=O)CNC(=O)[C@H](CCCCN)NC(=O)[C@H](CCC(N)=O)NC(=O)[C@H](C)NC(=O)[C@H](CC(C)C)NC(=O)[C@H](CC(C)C)NC(=O)[C@H](Cc1c[nH]c2ccccc12)NC(=O)[C@H](CC(N)=O)NC(=O)[C@@H](NC(=O)[C@H](Cc1ccccc1)NC(=O)[C@H](CC(=O)O)NC(=O)[C@H](CCC(N)=O)NC(=O)[C@H](CCC(N)=O)NC(=O)[C@H](Cc1c[nH]cn1)NC(=O)[C@@H](NC(=O)[C@H](CCCCN)NC(=O)[C@H](CC(=O)O)NC(=O)[C@H](CC(C)C)NC(=O)[C@H](CCC(=O)O)NC(=O)[C@@H](NC(=O)[C@H](CO)NC(=O)[C@H](Cc1ccc(O)cc1)NC(=O)[C@H](CC(=O)O)NC(=O)[C@H](CO)NC(=O)[C@@H](NC(=O)[C@H](Cc1ccccc1)NC(=O)[C@@H](NC(=O)CNC(=O)[C@H](CCC(=O)O)NC(=O)C(C)(C)NC(=O)[C@@H](N)Cc1ccc(O)cc1)[C@@H](C)O)[C@@H](C)CC)[C@@H](C)CC)[C@@H](C)CC)C(C)C)C(N)=O)C(=O)O) [Compound 7]	0.018	0.032	
H-Y[Aib]EGTFISDYSIELEKK([γGlu-Palmitoyl])HQQDFVNWLLAQGPSSGAPPPS-NH2 (SMILES CCCCCCCCCCCCCCCC(=O)N[C@@H](CCC(=O)NCCCC[C@H](NC(=O)[C@H](CCCCN)NC(=O)[C@H](CCC(=O)O)NC(=O)[C@H](CC(C)C)NC(=O)[C@H](CCC(=O)O)NC(=O)[C@@H](NC(=O)[C@H](CO)NC(=O)[C@H](Cc1ccc(O)cc1)NC(=O)[C@H](CC(=O)O)NC(=O)[C@H](CO)NC(=O)[C@@H](NC(=O)[C@H](Cc1ccccc1)NC(=O)[C@@H](NC(=O)CNC(=O)[C@H](CCC(=O)O)NC(=O)C(C)(C)NC(=O)[C@@H](N)Cc1ccc(O)cc1)[C@@H](C)O)[C@@H](C)CC)[C@@H](C)CC)C(=O)N[C@@H](Cc1c[nH]cn1)C(=O)N[C@@H](CCC(N)=O)C(=O)N[C@@H](CCC(N)=O)C(=O)N[C@@H](CC(=O)O)C(=O)N[C@@H](Cc1ccccc1)C(=O)N[C@H](C(=O)N[C@@H](CC(N)=O)C(=O)N[C@@H](Cc1c[nH]c2ccccc12)C(=O)N[C@@H](CC(C)C)C(=O)N[C@@H](CC(C)C)C(=O)N[C@@H](C)C(=O)N[C@@H](CCC(N)=O)C(=O)NCC(=O)N1CCC[C@H]1C(=O)N[C@@H](CO)C(=O)N[C@@H](CO)C(=O)NCC(=O)N[C@@H](C)C(=O)N1CCC[C@H]1C(=O)N1CCC[C@H]1C(=O)N1CCC[C@H]1C(=O)N[C@@H](CO)C(N)=O)C(C)C)C(=O)O) [Compound 3]	0.014	0.014	
H-Y[Aib]EGTFISDYSIELDKIHQQDFVNWLLAQK([γGlu-Palmitoyl])-NH2 (SMILES CCCCCCCCCCCCCCCC(=O)N[C@@H](CCC(=O)NCCCC[C@H](NC(=O)[C@H](CCC(N)=O)NC(=O)[C@H](C)NC(=O)[C@H](CC(C)C)NC(=O)[C@H](CC(C)C)NC(=O)[C@H](Cc1c[nH]c2ccccc12)NC(=O)[C@H](CC(N)=O)NC(=O)[C@@H](NC(=O)[C@H](Cc1ccccc1)NC(=O)[C@H](CC(=O)O)NC(=O)[C@H](CCC(N)=O)NC(=O)[C@H](CCC(N)=O)NC(=O)[C@H](Cc1c[nH]cn1)NC(=O)[C@@H](NC(=O)[C@H](CCCCN)NC(=O)[C@H](CC(=O)O)NC(=O)[C@H](CC(C)C)NC(=O)[C@H](CCC(=O)O)NC(=O)[C@@H](NC(=O)[C@H](CO)NC(=O)[C@H](Cc1ccc(O)cc1)NC(=O)[C@H](CC(=O)O)NC(=O)[C@H](CO)NC(=O)[C@@H](NC(=O)[C@H](Cc1ccccc1)NC(=O)[C@@H](NC(=O)CNC(=O)[C@H](CCC(=O)O)NC(=O)C(C)(C)NC(=O)[C@@H](N)Cc1ccc(O)cc1)[C@@H](C)O)[C@@H](C)CC)[C@@H](C)CC)[C@@H](C)CC)C(C)C)C(N)=O)C(=O)O) [Compound 6]	0.032	0.014	
H-Y[Aib]EGTFISDYSIELDKK([γGlu-Palmitoyl])HQQDFVNWLLAQGPSSGAPPPS-NH2 (SMILES CCCCCCCCCCCCCCCC(=O)N[C@@H](CCC(=O)NCCCC[C@H](NC(=O)[C@H](CCCCN)NC(=O)[C@H](CC(=O)O)NC(=O)[C@H](CC(C)C)NC(=O)[C@H](CCC(=O)O)NC(=O)[C@@H](NC(=O)[C@H](CO)NC(=O)[C@H](Cc1ccc(O)cc1)NC(=O)[C@H](CC(=O)O)NC(=O)[C@H](CO)NC(=O)[C@@H](NC(=O)[C@H](Cc1ccccc1)NC(=O)[C@@H](NC(=O)CNC(=O)[C@H](CCC(=O)O)NC(=O)C(C)(C)NC(=O)[C@@H](N)Cc1ccc(O)cc1)[C@@H](C)O)[C@@H](C)CC)[C@@H](C)CC)C(=O)N[C@@H](Cc1c[nH]cn1)C(=O)N[C@@H](CCC(N)=O)C(=O)N[C@@H](CCC(N)=O)C(=O)N[C@@H](CC(=O)O)C(=O)N[C@@H](Cc1ccccc1)C(=O)N[C@H](C(=O)N[C@@H](CC(N)=O)C(=O)N[C@@H](Cc1c[nH]c2ccccc12)C(=O)N[C@@H](CC(C)C)C(=O)N[C@@H](CC(C)C)C(=O)N[C@@H](C)C(=O)N[C@@H](CCC(N)=O)C(=O)NCC(=O)N1CCC[C@H]1C(=O)N[C@@H](CO)C(=O)N[C@@H](CO)C(=O)NCC(=O)N[C@@H](C)C(=O)N1CCC[C@H]1C(=O)N1CCC[C@H]1C(=O)N1CCC[C@H]1C(=O)N[C@@H](CO)C(N)=O)C(C)C)C(=O)O) [Compound 1]	0.008	0.003	
H-Y[Aib]EGTFISDYSIELDKIHQQDFVNWLLAQGPSSGAPPPSK([γGlu-Palmitoyl])-NH2 (SMILES CCCCCCCCCCCCCCCC(=O)N[C@@H](CCC(=O)NCCCC[C@H](NC(=O)[C@H](CO)NC(=O)[C@@H]1CCCN1C(=O)[C@@H]1CCCN1C(=O)[C@@H]1CCCN1C(=O)[C@H](C)NC(=O)CNC(=O)[C@H](CO)NC(=O)[C@H](CO)NC(=O)[C@@H]1CCCN1C(=O)CNC(=O)[C@H](CCC(N)=O)NC(=O)[C@H](C)NC(=O)[C@H](CC(C)C)NC(=O)[C@H](CC(C)C)NC(=O)[C@H](Cc1c[nH]c2ccccc12)NC(=O)[C@H](CC(N)=O)NC(=O)[C@@H](NC(=O)[C@H](Cc1ccccc1)NC(=O)[C@H](CC(=O)O)NC(=O)[C@H](CCC(N)=O)NC(=O)[C@H](CCC(N)=O)NC(=O)[C@H](Cc1c[nH]cn1)NC(=O)[C@@H](NC(=O)[C@H](CCCCN)NC(=O)[C@H](CC(=O)O)NC(=O)[C@H](CC(C)C)NC(=O)[C@H](CCC(=O)O)NC(=O)[C@@H](NC(=O)[C@H](CO)NC(=O)[C@H](Cc1ccc(O)cc1)NC(=O)[C@H](CC(=O)O)NC(=O)[C@H](CO)NC(=O)[C@@H](NC(=O)[C@H](Cc1ccccc1)NC(=O)[C@@H](NC(=O)CNC(=O)[C@H](CCC(=O)O)NC(=O)C(C)(C)NC(=O)[C@@H](N)Cc1ccc(O)cc1)[C@@H](C)O)[C@@H](C)CC)[C@@H](C)CC)[C@@H](C)CC)C(C)C)C(N)=O)C(=O)O) [Compound 5]	0.014	0.014	
H-Y[Aib]EGTFISDYSIELDKIHQQDFVNWLLAQGPSSGAPPPSK([Peg3-Peg3-γGlu-C20 diacid])-NH2 [Compound 4]	0.013	0.014	
H-Y[Aib]EGTFISDYSIELDKK([Peg3-Peg3-γGlu-C20 diacid])HQQDFVNWLLAQGPSSGAPPPS-NH2 [Compound 9]	0.008	0.009	> 3
H-Y[Aib]EGTFISDYSIELDK([γGlu-Palmitoyl])IHQQDFVNWLLAQGPSSGAPPPS-NH2 (SMILES CCCCCCCCCCCCCCCC(=O)N[C@@H](CCC(=O)NCCCC[C@H](NC(=O)[C@H](CC(=O)O)NC(=O)[C@H](CC(C)C)NC(=O)[C@H](CCC(=O)O)NC(=O)[C@@H](NC(=O)[C@H](CO)NC(=O)[C@H](Cc1ccc(O)cc1)NC(=O)[C@H](CC(=O)O)NC(=O)[C@H](CO)NC(=O)[C@@H](NC(=O)[C@H](Cc1ccccc1)NC(=O)[C@@H](NC(=O)CNC(=O)[C@H](CCC(=O)O)NC(=O)C(C)(C)NC(=O)[C@@H](N)Cc1ccc(O)cc1)[C@@H](C)O)[C@@H](C)CC)[C@@H](C)CC)C(=O)N[C@H](C(=O)N[C@@H](Cc1c[nH]cn1)C(=O)N[C@@H](CCC(N)=O)C(=O)N[C@@H](CCC(N)=O)C(=O)N[C@@H](CC(=O)O)C(=O)N[C@@H](Cc1ccccc1)C(=O)N[C@H](C(=O)N[C@@H](CC(N)=O)C(=O)N[C@@H](Cc1c[nH]c2ccccc12)C(=O)N[C@@H](CC(C)C)C(=O)N[C@@H](CC(C)C)C(=O)N[C@@H](C)C(=O)N[C@@H](CCC(N)=O)C(=O)NCC(=O)N1CCC[C@H]1C(=O)N[C@@H](CO)C(=O)N[C@@H](CO)C(=O)NCC(=O)N[C@@H](C)C(=O)N1CCC[C@H]1C(=O)N1CCC[C@H]1C(=O)N1CCC[C@H]1C(=O)N[C@@H](CO)C(N)=O)C(C)C)[C@@H](C)CC)C(=O)O) [Compound 2]	0.013	0.008	

From patent publication US10253078 (ZEALAND PHARMA A S, dated 2019)
